From US20260098059A1 (ENDOMET BIOSCIENCES, published 2026) come the findings set out here.

In test [1] the target is T1, β-catenin (UniProt P35222 134-665, limits assumed, biotinylated in the SPR and plate assays).
T1 construct: also called beta catenin; biotinylated β-catenin
T1 sequence (looked up): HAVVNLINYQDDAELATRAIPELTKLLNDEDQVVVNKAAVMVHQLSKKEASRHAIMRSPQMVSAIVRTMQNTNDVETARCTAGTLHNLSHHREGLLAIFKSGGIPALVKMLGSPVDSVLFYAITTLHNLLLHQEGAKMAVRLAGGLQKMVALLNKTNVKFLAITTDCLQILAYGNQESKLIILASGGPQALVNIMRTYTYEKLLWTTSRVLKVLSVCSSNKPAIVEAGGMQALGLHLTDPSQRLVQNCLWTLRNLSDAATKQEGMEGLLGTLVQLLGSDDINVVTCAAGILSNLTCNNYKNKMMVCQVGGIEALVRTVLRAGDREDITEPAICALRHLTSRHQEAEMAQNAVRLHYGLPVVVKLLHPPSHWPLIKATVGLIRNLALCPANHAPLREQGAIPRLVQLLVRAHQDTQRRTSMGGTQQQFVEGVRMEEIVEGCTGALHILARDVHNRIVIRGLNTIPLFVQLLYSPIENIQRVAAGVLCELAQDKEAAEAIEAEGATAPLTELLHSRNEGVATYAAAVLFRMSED
As to the kind of experiment: competitive FP. In outline: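 Competitive fluorescence polarization with inhibitor peptide serially diluted from 10 nM to 30 uM; polarization read at 470 nm excitation, 520 nm emission. Experiments performed three times.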

Test [2] concerns the target T1, β-catenin. In words: cell-based or functional assay.

“And” between values parts separate entries of the source, which are not always exact repeats. Equal values may be shown once. Bridges are numbered along the chain shown (N, C = ends). Where no end group is shown, it is not given here. [ ]: non-standard residue; d: D form. NMeW = CN[C@@H](Cc1c[nH]c2ccccc12)C(=O)O; Chg = N[C@H](C(=O)O)C1CCCCC1; αMeV = CC(C)[C@](C)(N)C(=O)O; αMeS = C[C@](N)(CO)C(=O)O; NMeA = CN[C@@H](C)C(=O)O Some results are limits rather than exact numbers.

For orientation: Kd means the constant that tells how readily two partners part at equilibrium. A higher Kd goes with a looser complex. In test [1], H-W[NMeW]E[αMeS]ILDEH[αMeV]QRVWG-NH2 [SEQ ID NO: 38] returned a Kd of at most 400 nM. For the same molecule, the “Wnt Reporter EC50” value in test [2] is above 30 µM.

B1: SEQ ID NO: 403 (peptide)
peptide: WAQKILDEHGQRVWG
HELM: PEPTIDE1{W.[meA].Q.K.I.L.D.E.H.[O=C([C@@H](N[*:1])C1CCCCC1)[*:2]].Q.R.V.W.G.[am]}$PEPTIDE1,PEPTIDE1,4:R3-8:R3$$$V2.0
SMILES: CC[C@H](C)[C@@H]1NC(=O)[C@@H](NC(=O)[C@H](CCC(N)=O)NC(=O)[C@H](C)N(C)C(=O)[C@@H](N)Cc2c[nH]c3ccccc23)CCCCNC(=O)CC[C@@H](C(=O)N[C@@H](Cc2c[nH]cn2)C(=O)N[C@H](C(=O)N[C@@H](CCC(N)=O)C(=O)N[C@@H](CCCNC(=N)N)C(=O)N[C@H](C(=O)N[C@@H](Cc2c[nH]c3ccccc23)C(=O)NCC(N)=O)C(C)C)C2CCCCC2)NC(=O)[C@H](CC(=O)O)NC(=O)[C@H](CC(C)C)NC1=O
B1 came in with a Kd in test [1] of at most 400 nM. For the same molecule, the “Wnt Reporter EC50” value in test [2] was above 30 µM.
H-W[NMeW]ESILDEH[αMeV]QRVWG-NH2 [SEQ ID NO: 39] had a dissociation constant (Kd) in test [1] of at most 400 nM. In test [2], the “Wnt Reporter EC50” value is above 30 µM.

B2: SEQ ID NO: 413 (peptide)
peptide: ARLPESILDEHVQRVWP
HELM: PEPTIDE1{[ac].[bAla].R.L.P.E.S.I.L.D.E.H.V.Q.R.V.W.P.[am]}$$$$V2.0
SMILES: CC[C@H](C)[C@H](NC(=O)[C@H](CO)NC(=O)[C@H](CCC(=O)O)NC(=O)[C@@H]1CCCN1C(=O)[C@H](CC(C)C)NC(=O)[C@H](CCCNC(=N)N)NC(=O)CCNC(C)=O)C(=O)N[C@@H](CC(C)C)C(=O)N[C@@H](CC(=O)O)C(=O)N[C@@H](CCC(=O)O)C(=O)N[C@@H](Cc1c[nH]cn1)C(=O)N[C@H](C(=O)N[C@@H](CCC(N)=O)C(=O)N[C@@H](CCCNC(=N)N)C(=O)N[C@H](C(=O)N[C@@H](Cc1c[nH]c2ccccc12)C(=O)N1CCC[C@H]1C(N)=O)C(C)C)C(C)C
Molecule B2 gave a Kd in test [1] of at most 400 nM. For the same molecule, the “Wnt Reporter EC50” value in test [2] is above 30 µM.

B3: SEQ ID NO: 405 (peptide)
peptide: WAQKILDEHGQRVWG
HELM: PEPTIDE1{[O=C(O)CCC(=O)[*:2]].W.[meA].Q.K.I.L.D.E.H.[O=C([C@@H](N[*:1])C1CCCCC1)[*:2]].Q.R.V.W.G.[am]}$PEPTIDE1,PEPTIDE1,5:R3-9:R3$$$V2.0
SMILES: CC[C@H](C)[C@@H]1NC(=O)[C@@H](NC(=O)[C@H](CCC(N)=O)NC(=O)[C@H](C)N(C)C(=O)[C@H](Cc2c[nH]c3ccccc23)NC(=O)CCC(=O)O)CCCCNC(=O)CC[C@@H](C(=O)N[C@@H](Cc2c[nH]cn2)C(=O)N[C@H](C(=O)N[C@@H](CCC(N)=O)C(=O)N[C@@H](CCCNC(=N)N)C(=O)N[C@H](C(=O)N[C@@H](Cc2c[nH]c3ccccc23)C(=O)NCC(N)=O)C(C)C)C2CCCCC2)NC(=O)[C@H](CC(=O)O)NC(=O)[C@H](CC(C)C)NC1=O
In test [1], B3 displayed a Kd of at most 400 nM. In test [2], the “Proliferation IC50, Wnt dependent cells” value stood at 26.8 µM; the “Wnt Reporter EC50” value was > 15 µM and ≤ 22.5 µM.

B4: SEQ ID NO: 402 (peptide)
peptide: WAQKILDEHVQRVWG
HELM: PEPTIDE1{[ac].W.[meA].Q.K.I.L.D.E.H.V.Q.R.V.W.G.[am]}$PEPTIDE1,PEPTIDE1,5:R3-9:R3$$$V2.0
SMILES: CC[C@H](C)[C@@H]1NC(=O)[C@@H](NC(=O)[C@H](CCC(N)=O)NC(=O)[C@H](C)N(C)C(=O)[C@H](Cc2c[nH]c3ccccc23)NC(C)=O)CCCCNC(=O)CC[C@@H](C(=O)N[C@@H](Cc2c[nH]cn2)C(=O)N[C@H](C(=O)N[C@@H](CCC(N)=O)C(=O)N[C@@H](CCCNC(=N)N)C(=O)N[C@H](C(=O)N[C@@H](Cc2c[nH]c3ccccc23)C(=O)NCC(N)=O)C(C)C)C(C)C)NC(=O)[C@H](CC(=O)O)NC(=O)[C@H](CC(C)C)NC1=O
Take B4: the dissociation constant Kd in test [1] is at most 400 nM. Also, in test [2], the “Wnt Reporter EC50” value was above 30 µM.

B5: SEQ ID NO: 430 (peptide)
peptide: WAQKILDDHGQRVWG
HELM: PEPTIDE1{[ac].W.[meA].Q.K.I.L.D.D.H.[O=C([C@@H](N[*:1])C1CCCCC1)[*:2]].Q.R.V.W.G.[am]}$PEPTIDE1,PEPTIDE1,5:R3-9:R3$$$V2.0
SMILES: CC[C@H](C)[C@@H]1NC(=O)[C@@H](NC(=O)[C@H](CCC(N)=O)NC(=O)[C@H](C)N(C)C(=O)[C@H](Cc2c[nH]c3ccccc23)NC(C)=O)CCCCNC(=O)C[C@@H](C(=O)N[C@@H](Cc2c[nH]cn2)C(=O)N[C@H](C(=O)N[C@@H](CCC(N)=O)C(=O)N[C@@H](CCCNC(=N)N)C(=O)N[C@H](C(=O)N[C@@H](Cc2c[nH]c3ccccc23)C(=O)NCC(N)=O)C(C)C)C2CCCCC2)NC(=O)[C@H](CC(=O)O)NC(=O)[C@H](CC(C)C)NC1=O
In test [1], B5 displayed a Kd of at most 400 nM. In test [2], the “Wnt Reporter EC50” value is > 15 µM and ≤ 22.5 µM.

B6: SEQ ID NO: 449 (peptide)
peptide: WAQKILDEHGQRVWR
HELM: PEPTIDE1{[ac].W.[meA].Q.K.I.L.D.E.H.[O=C([C@@H](N[*:1])C1CCCCC1)[*:2]].Q.R.V.W.R.[am]}$PEPTIDE1,PEPTIDE1,5:R3-9:R3$$$V2.0
SMILES: CC[C@H](C)[C@@H]1NC(=O)[C@@H](NC(=O)[C@H](CCC(N)=O)NC(=O)[C@H](C)N(C)C(=O)[C@H](Cc2c[nH]c3ccccc23)NC(C)=O)CCCCNC(=O)CC[C@@H](C(=O)N[C@@H](Cc2c[nH]cn2)C(=O)N[C@H](C(=O)N[C@@H](CCC(N)=O)C(=O)N[C@@H](CCCNC(=N)N)C(=O)N[C@H](C(=O)N[C@@H](Cc2c[nH]c3ccccc23)C(=O)N[C@@H](CCCNC(=N)N)C(N)=O)C(C)C)C2CCCCC2)NC(=O)[C@H](CC(=O)O)NC(=O)[C@H](CC(C)C)NC1=O
The molecule B6 returned a dissociation constant Kd in test [1] of at most 400 nM. Further, the “Wnt Reporter EC50” value in test [2] is above 30 µM.

B7: SEQ ID NO: 435 (peptide)
peptide: WAQKILNEHGQRVWG
HELM: PEPTIDE1{[ac].W.[meA].Q.K.I.L.N.E.H.[O=C([C@@H](N[*:1])C1CCCCC1)[*:2]].Q.R.V.W.G.[am]}$PEPTIDE1,PEPTIDE1,5:R3-9:R3$$$V2.0
SMILES: CC[C@H](C)[C@@H]1NC(=O)[C@@H](NC(=O)[C@H](CCC(N)=O)NC(=O)[C@H](C)N(C)C(=O)[C@H](Cc2c[nH]c3ccccc23)NC(C)=O)CCCCNC(=O)CC[C@@H](C(=O)N[C@@H](Cc2c[nH]cn2)C(=O)N[C@H](C(=O)N[C@@H](CCC(N)=O)C(=O)N[C@@H](CCCNC(=N)N)C(=O)N[C@H](C(=O)N[C@@H](Cc2c[nH]c3ccccc23)C(=O)NCC(N)=O)C(C)C)C2CCCCC2)NC(=O)[C@H](CC(N)=O)NC(=O)[C@H](CC(C)C)NC1=O
For B7, the Kd in test [1] is at most 400 nM. Also, in test [2], the “Wnt Reporter EC50” value is above 30 µM.

B8: SEQ ID NO: 432 (peptide)
peptide: W[NMeA]QKILDDH[Chg]QRVWG-NH2
modifications: lactam 4-8; not fully specified (N-terminus); printed as H23C11C(O)NH-W-NMeA-QK*ILDD*H-Chg-QRVWG-NH2
B8 registered a Kd in test [1] of at most 400 nM. In test [2], the “Proliferation IC50, Endo cells” value came to 0.8 µM; the “Proliferation IC50, Wnt dependent cells” value was determined as 14.9 µM; the “Wnt Reporter EC50” value was > 7.5 µM and ≤ 15 µM.

B9: SEQ ID NO: 431 (peptide)
peptide: W[NMeA]QKILDDH[Chg]QRVWG-NH2
modifications: lactam 4-8; not fully specified (N-terminus); printed as H17C8C(O)NH-W-NMeA-QK*ILDD*H-Chg-QRVWG-NH2
B9: in test [1], the Kd is at most 400 nM. Besides, in test [2], the “Wnt Reporter EC50” value is at most 7.5 µM.

B10: SEQ ID NO: 410 (peptide)
peptide: ARLPESILDEHVQRVWP
HELM: PEPTIDE1{[bAla].R.L.P.E.S.I.L.D.E.H.V.Q.R.V.W.P.[am]}$$$$V2.0
SMILES: CC[C@H](C)[C@H](NC(=O)[C@H](CO)NC(=O)[C@H](CCC(=O)O)NC(=O)[C@@H]1CCCN1C(=O)[C@H](CC(C)C)NC(=O)[C@H](CCCNC(=N)N)NC(=O)CCN)C(=O)N[C@@H](CC(C)C)C(=O)N[C@@H](CC(=O)O)C(=O)N[C@@H](CCC(=O)O)C(=O)N[C@@H](Cc1c[nH]cn1)C(=O)N[C@H](C(=O)N[C@@H](CCC(N)=O)C(=O)N[C@@H](CCCNC(=N)N)C(=O)N[C@H](C(=O)N[C@@H](Cc1c[nH]c2ccccc12)C(=O)N1CCC[C@H]1C(N)=O)C(C)C)C(C)C
On to B10, for which the Kd in test [1] was > 400 nM and ≤ 1000 nM. For the same molecule, the “Wnt Reporter EC50” value in test [2] was above 30 µM.

B11: SEQ ID NO: 428 (peptide)
peptide: RWPQKILDEHVRRVWR
HELM: PEPTIDE1{[ac].R.W.P.Q.K.I.L.D.E.H.V.R.R.V.W.R.[am]}$PEPTIDE1,PEPTIDE1,6:R3-10:R3$$$V2.0
SMILES: CC[C@H](C)[C@@H]1NC(=O)[C@@H](NC(=O)[C@H](CCC(N)=O)NC(=O)[C@@H]2CCCN2C(=O)[C@H](Cc2c[nH]c3ccccc23)NC(=O)[C@H](CCCNC(=N)N)NC(C)=O)CCCCNC(=O)CC[C@@H](C(=O)N[C@@H](Cc2c[nH]cn2)C(=O)N[C@H](C(=O)N[C@@H](CCCNC(=N)N)C(=O)N[C@@H](CCCNC(=N)N)C(=O)N[C@H](C(=O)N[C@@H](Cc2c[nH]c3ccccc23)C(=O)N[C@@H](CCCNC(=N)N)C(N)=O)C(C)C)C(C)C)NC(=O)[C@H](CC(=O)O)NC(=O)[C@H](CC(C)C)NC1=O
B11 showed a dissociation constant (Kd) in test [1] of at most 400 nM. Further, the “Wnt Reporter EC50” value in test [2] was above 30 µM.
